Experimental data from paper PMC5979045.

Biological target: Toll-like receptor 4 (TLR4) on mouse bone marrow-derived dendritic cells (mouse (endogenous in bone marrow-derived DCs)) (UniProt Q9QUK6)
Experiment: flow cytometry on cells; immature bone marrow-derived DCs of WT C57 BL/6 mice, pre-incubated with IgG1 isotype, TLR2 blocking or TLR4 blocking antibody on ice for 1 h, then stained with anti-CD11c APC, anti-TLR2-FITC, anti-TLR4-PE-Cy7 and rTs-Hsp70-PE on ice for 30 min; rTs-Hsp70-PE and TLR2-FITC or TLR4-PE-Cy7 double positive cells among CD11c+ cells

Sequence of UniProt Q9QUK6 (Q9QUK6 26-835): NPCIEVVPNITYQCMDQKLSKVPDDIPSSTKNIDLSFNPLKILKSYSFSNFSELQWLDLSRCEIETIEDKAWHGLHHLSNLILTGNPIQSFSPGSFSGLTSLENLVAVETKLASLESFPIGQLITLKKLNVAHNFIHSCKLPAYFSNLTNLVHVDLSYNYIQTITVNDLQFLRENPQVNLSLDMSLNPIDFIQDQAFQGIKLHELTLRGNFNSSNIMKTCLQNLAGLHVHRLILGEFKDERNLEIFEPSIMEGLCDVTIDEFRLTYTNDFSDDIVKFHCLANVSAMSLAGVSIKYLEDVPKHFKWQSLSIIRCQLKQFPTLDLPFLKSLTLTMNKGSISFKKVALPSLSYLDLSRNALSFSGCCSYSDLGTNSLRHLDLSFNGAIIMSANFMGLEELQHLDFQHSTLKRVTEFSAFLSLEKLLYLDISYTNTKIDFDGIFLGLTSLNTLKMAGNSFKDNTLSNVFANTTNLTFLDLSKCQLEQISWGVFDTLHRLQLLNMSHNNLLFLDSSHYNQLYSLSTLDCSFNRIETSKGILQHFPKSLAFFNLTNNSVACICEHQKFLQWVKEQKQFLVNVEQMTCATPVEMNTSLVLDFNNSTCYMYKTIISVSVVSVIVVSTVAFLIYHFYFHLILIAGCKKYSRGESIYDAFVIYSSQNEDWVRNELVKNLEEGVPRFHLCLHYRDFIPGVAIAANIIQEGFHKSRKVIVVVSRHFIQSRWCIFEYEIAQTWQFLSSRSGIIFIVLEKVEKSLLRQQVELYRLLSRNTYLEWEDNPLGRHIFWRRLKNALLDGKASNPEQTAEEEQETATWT

Recombinant Trichinella spiralis Heat shock protein 70 (natural protein)
percent of TLR4+ cells on CD11c+ DCs bound by rTs-Hsp70: 12.3%
